Experimental data published in US20240141067A1 (RALLYBIO IPA, published 2024).

B1: RLYB212 (antibody, human IgG1, kappa, V domains shown)
VH: QVQLQQSGPGLVKPSQTLSLTCAISGDSVSSNSAAWNWIRQSPSRGLEWLGRTYFRSNWYNDYAASVKSRITINQDTSKNQLSLQLNSVTPEDTAVYYCARDGAWGGSSWWPGLPHHYYSGMDVWGQGTTVTVSS
VL: EIVLTQSPATLSLSPGERATLSCRASQSVSSYLAWYQQKPGQAPRLLIYDASKRATGIPARFSGSGSGTDFSLTIRSLEPEDFAVYYCQQRSDWQGLTFGGGTKVEIKR
notes: also called monoclonal RLYB212; monospecific monoclonal antibody RLYB212

How the values were obtained:
[1] = biological target: APLDQ GPIIIa (murine integrin β3 humanized to carry the HPA-1a epitope, in GPIIb-IIIa) on APLDQ mouse platelets (mouse) (UniProt O54890); experiment: flow cytometry saturation-binding curves on APLDQ platelets
[2] = biological target: APLDQ GPIIIa (murine integrin β3 humanized to carry the HPA-1a epitope, in GPIIb-IIIa) on APLDQ mouse platelets (mouse) (UniProt O54890); experiment: flow cytometry saturation-binding curve on APLDQ homozygous platelets
[3] = biological target: T1, HPA-1a (Leu33 form of human GPIIIa / integrin β3, in GPIIb-IIIa) on HPA-1a/a human platelets (human, UniProt P05106 27-788; P08514 32-1039); experiment: flow cytometry on washed human platelets, FITC goat anti-human IgG
T1 construct: whole, on cells; Native antigen on washed platelets from HPA-1a/a individuals; also called HPA-1a alloantigen; HPA-1a expressed on GPIIIa
T1 sequence (P05106 27-788, chain 1 of 2): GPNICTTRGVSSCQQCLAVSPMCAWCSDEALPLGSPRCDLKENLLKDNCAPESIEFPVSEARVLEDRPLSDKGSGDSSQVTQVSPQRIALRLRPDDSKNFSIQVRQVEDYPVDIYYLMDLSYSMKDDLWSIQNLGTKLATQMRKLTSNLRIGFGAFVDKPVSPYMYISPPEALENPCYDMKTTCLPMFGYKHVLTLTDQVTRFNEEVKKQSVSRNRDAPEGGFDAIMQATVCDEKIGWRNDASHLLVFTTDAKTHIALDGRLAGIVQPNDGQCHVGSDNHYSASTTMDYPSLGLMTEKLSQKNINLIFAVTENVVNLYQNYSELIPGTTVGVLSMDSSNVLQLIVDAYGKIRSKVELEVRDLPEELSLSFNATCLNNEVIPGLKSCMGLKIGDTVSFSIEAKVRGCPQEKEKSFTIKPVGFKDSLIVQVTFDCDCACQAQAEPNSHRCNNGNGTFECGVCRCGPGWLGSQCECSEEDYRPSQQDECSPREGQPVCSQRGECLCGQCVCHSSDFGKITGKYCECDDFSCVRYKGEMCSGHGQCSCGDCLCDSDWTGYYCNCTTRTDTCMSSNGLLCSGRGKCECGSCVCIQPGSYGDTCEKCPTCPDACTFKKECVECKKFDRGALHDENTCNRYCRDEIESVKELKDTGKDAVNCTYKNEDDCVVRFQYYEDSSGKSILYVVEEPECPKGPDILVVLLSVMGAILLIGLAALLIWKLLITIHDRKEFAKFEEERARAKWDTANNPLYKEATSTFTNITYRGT
T1 sequence (P08514 32-1039, chain 2 of 2): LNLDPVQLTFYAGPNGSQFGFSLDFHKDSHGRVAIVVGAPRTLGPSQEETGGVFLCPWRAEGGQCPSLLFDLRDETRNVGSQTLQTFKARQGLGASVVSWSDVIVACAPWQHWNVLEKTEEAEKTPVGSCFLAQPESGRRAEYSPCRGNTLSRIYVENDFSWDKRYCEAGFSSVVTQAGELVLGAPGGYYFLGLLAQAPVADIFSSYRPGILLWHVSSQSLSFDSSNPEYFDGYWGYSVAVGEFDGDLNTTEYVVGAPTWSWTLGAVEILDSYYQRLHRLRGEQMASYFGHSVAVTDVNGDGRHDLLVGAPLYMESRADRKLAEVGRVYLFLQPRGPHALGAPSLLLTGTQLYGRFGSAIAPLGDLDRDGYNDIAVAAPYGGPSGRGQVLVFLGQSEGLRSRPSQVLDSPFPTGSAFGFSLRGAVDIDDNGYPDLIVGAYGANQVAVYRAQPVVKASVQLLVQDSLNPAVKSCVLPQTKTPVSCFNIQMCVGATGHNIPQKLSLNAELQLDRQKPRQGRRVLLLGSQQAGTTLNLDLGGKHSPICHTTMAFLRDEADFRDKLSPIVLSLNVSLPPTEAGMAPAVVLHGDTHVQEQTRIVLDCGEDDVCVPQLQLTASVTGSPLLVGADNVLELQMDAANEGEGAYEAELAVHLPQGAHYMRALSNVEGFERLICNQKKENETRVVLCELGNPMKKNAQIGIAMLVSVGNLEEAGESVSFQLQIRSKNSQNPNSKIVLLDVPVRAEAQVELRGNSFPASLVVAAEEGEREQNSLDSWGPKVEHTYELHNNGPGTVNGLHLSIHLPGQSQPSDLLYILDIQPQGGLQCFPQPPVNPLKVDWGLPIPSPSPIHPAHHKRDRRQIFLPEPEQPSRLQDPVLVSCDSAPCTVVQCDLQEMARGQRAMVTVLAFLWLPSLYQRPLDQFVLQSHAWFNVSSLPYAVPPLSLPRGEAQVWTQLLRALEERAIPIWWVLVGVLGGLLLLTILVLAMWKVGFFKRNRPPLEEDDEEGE

Chain of APLDQ GPIIIa (murine integrin β3 humanized to carry the HPA-1a epitope, in GPIIb-IIIa) on APLDQ mouse platelets (mouse) (O54890 26-787, chain 1 of 2): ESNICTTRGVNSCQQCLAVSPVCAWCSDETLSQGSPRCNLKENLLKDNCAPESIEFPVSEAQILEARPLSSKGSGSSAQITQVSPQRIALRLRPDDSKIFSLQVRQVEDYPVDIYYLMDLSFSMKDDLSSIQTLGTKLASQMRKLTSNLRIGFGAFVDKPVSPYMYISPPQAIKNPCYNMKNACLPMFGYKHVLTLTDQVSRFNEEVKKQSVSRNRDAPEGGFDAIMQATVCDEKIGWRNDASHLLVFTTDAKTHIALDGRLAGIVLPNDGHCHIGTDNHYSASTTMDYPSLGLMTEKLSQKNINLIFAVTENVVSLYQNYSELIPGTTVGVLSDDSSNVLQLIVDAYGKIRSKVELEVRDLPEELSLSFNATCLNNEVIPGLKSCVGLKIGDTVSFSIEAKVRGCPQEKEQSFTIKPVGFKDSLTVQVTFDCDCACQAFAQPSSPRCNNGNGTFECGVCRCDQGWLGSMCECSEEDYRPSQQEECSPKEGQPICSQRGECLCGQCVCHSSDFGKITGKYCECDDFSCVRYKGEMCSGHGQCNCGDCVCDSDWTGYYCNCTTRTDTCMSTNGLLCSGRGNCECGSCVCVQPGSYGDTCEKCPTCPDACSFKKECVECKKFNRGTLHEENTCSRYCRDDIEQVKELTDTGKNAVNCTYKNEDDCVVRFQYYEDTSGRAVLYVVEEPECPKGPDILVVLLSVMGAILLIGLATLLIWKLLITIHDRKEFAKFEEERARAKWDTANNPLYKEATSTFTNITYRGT
Chain of APLDQ GPIIIa (murine integrin β3 humanized to carry the HPA-1a epitope, in GPIIb-IIIa) on APLDQ mouse platelets (mouse) (Q9QUM0 32-1033, chain 2 of 2, further chain): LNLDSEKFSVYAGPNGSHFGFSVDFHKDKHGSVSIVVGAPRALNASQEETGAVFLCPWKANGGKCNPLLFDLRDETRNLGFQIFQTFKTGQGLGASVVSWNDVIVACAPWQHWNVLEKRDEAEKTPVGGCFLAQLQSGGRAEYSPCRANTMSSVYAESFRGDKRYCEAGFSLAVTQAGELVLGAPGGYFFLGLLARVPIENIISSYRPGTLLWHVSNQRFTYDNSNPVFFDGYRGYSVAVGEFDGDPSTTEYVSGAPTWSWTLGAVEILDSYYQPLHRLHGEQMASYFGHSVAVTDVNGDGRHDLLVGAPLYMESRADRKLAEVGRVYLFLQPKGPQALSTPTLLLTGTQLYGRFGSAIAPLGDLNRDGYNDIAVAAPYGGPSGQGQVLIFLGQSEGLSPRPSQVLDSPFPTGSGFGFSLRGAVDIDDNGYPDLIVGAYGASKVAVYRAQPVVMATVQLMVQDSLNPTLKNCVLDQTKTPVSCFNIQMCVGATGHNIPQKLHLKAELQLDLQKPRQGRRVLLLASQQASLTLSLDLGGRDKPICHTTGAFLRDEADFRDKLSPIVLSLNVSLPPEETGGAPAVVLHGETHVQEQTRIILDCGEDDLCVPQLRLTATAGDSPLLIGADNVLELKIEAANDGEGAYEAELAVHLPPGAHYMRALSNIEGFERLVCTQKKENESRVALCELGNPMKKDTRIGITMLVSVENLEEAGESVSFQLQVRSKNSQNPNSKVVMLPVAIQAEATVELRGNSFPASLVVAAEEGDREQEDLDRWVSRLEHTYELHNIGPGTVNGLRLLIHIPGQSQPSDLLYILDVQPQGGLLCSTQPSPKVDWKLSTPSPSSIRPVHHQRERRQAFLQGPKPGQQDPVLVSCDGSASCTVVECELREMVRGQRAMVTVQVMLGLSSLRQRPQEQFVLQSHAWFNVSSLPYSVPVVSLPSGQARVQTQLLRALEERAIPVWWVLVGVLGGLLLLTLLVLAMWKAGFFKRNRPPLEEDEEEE

occupancy of available GPIIb-IIIa receptors at ~4 IU/mL [1] | concentration that fully saturates GPIIb-IIIa receptors [2] | binding result [3] | Molecule
< 10% | – | – | RLYB211 (antibody)
< 10% | > 100 IU/ml | binds | B1
